Results published in patent US11034759B2, “Humanized M-CSF specific monoclonal antibodies, kits, and uses thereof” (NOVARTIS VACCINES AND DIAGNOSTICS, INC., priority 2004, dated 2021).

T1: MCSF (Homo sapiens, UniProt P09603)
T1 sequence (P09603 33-255 limits assumed): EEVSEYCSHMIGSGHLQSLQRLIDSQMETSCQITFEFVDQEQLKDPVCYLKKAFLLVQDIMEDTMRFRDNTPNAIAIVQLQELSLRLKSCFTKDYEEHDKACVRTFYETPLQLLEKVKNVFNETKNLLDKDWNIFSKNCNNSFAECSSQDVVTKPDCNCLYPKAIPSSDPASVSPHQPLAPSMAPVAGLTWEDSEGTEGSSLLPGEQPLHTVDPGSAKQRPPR


Assays:
MCSF [1] = target: T1, MCSF; assay: M-NFS-60 proliferation assay, neutralizing activity (Example 1); type: cell-based; details: 10 ng/ml M-CSF, 72 hours
Method: Proliferation of M-NFS-60 requires active M-CSF in a dose-dependent fashion. In the assay, M-NFS-60 cells were washed and plated in RPMI 1640 medium with 10% FBS and 3000 U/ml of M-CSF and 1% Pen/Strep. Recombinant human M-CSF (at 10 ng/ml final concentration), human or murine-specific, was incubated with various concentrations of antibodies for 1 hour at 37° C. in 5% CO2 in an incubator. Following the incubation, the mixture was added to the M-NFS-60 culture in 96 well microtiter plates. Cells were incubated at 37° C. under 5% CO2 for 72 hours before cell numbers were quantified by CellTiter Glo assay (Promega). The aforementioned assay was repeated for antibodies MC3 and MC1.

MCSF [2] = target: T1, MCSF; assay: Biacore analysis of Human Engineered RX1 antibodies, M-CSF immobilized (Example 13); type: binding
Method: To determine the relative differences in the binding affinity of intact antibodies by Biacore analysis, M-CSF was immobilized onto CMS biosensor chip via amine coupling. 0.05 μg/ml M-CSF in 10 mM Na-Acetate pH 4.0 was injected at 1 μl/min for 5 minutes to achieve RL=6-12 RU. Test antibody or Fab fragments were flowed over the modified biosensor surface at varying concentrations ranging from 100 nM to 1.5 nM in 2-fold dilutions. Test antibodies were diluted in 0.01 M HEPES pH 7.4, 0.15 M NaCL, 3 mM EDTA, 0.005% Surfactant P20 (HBS-EP) and all experiments were done at 25° C. Each concentration point and buffer blanks were run in triplicate, and data was collected over 3 minutes of association and 8 minutes of dissociation. Kinetic and affinity constants were determined using Biaevaluation software with a 1:1 interaction model/global fit.

MCSF [3] = target: T1, MCSF; assay: Size of antigen-antibody complex by size exclusion chromatography or light scattering; details: M-CSF and antibody at equal molar ratios

Row | Molecule | Neutralization of M-CSF activity (M-NFS-60 proliferation) (MCSF [1]) | ka (MCSF [2]; Table 11, 25° C.) | kd (MCSF [2]; Table 11, 25° C.) | Size of antigen-antibody complex (MCSF [3]) | Type of antigen-antibody complex formed with MCSF (MCSF [3]) | kd (sec-1) (MCSF [2]; Table 10, 25° C.) | kd (sec-1) (MCSF [2]; Table 11, 25° C.)
1 | MC1: MCSF-specific murine antibody MC1 (SEQ ID NOs: 12 and 13), hybridoma ATCC PTA-6263 (antibody, listed as Mus musculus) heavy: EVKLVESGGGLVQPGGSLKLSCATSGFTFSDYYMYWVRQTPEKRLEWVAYISNGGGSTYYPDTVKGRFTISRDNAKNTLYLQMSRLKSEDTAMYYCARQGSYGYPFAYWGQGTLVTVSAAKTTAPSVYPLAPVCGDTTGSSVTLGCLVKGYFPEPVTLTWNSGSLSSGVHTFPAVLQSDLYTLSSSVTVTSSTWPSQSITCNVAHPASSTKVDKKIEPRGPTIKPCPPCKCPAPNLLGGPSVFIFPPKIKDVLMISLSPIVTCVVVDVSEDDPDVQISWFVNNVEVHTAQTQTHREDYNSTLRVVSALPIQHQDWMSGKEFKCKVNNKDLPAPIERTISKPKGSVRAPQVYVLPPPEEEMTKKQVTLTCMVTDFMPEDIYVEWTNNGKTELNYKNTEPVLDSDGSYFMYSKLRVEKKNWVERNSYSCSVVHEGLHNHHTTKSFSRTPGK light: AIQMTQTTSSLSASLGDRVTISCSASQGISNYLNWYQQKPDGTVKLLIYYTSSLHSGVPSRFSGSGSGTDYSLTISNLEPEDIATYYCQQYSKLPWTFGGGTKLEIKRADAAPTVSIFPPSSEQLTSGGASVVCFLNNFYPKDINVKWKIDGSERQNGVLNSWTDQDSKDSTYSMSSTLTLTKDEYERHNSYTCEATHKTSTSPIVKSFNRNEC | effective inhibitors of M-CSF activity | – | – | – | – | – | –
2 | heRX1-9.G2: Human Engineered RX1: light chain Low + Mod Risk (Germline), heavy chain Low Risk (Kabat), Gamma 2 (antibody, left off: a dimerising Fc or GST) heavy: DVQLQESGPGLVKPSQTLSLTCTVTDYSITSDYAWNWIRQFPGKKLEWMGYISYSGSTSYNPSLKSRITISRDTSKNQFSLQLNSVTAADTATYYCASFDYAHAMDYWGQGTTVTVSS light: DIVLTQSPAFLSVTPGEKVTFTCQASQSIGTSIHWYQQKTDQAPKLLIKYASESISGIPSRFSGSGSGTDFTLTISSVEAEDAADYYCQQINSWPTTFGGGTKLEIKRT | – | 200000 M⁻¹ s⁻¹ | 0.00144 s⁻¹ | about 400 kDa | 2:1 or 2:2 complexes | – | –
3 | heRX1-7.G2: Human Engineered RX1: light chain Low + Mod Risk (Kabat) − RAT54, 55, 56 to SIS, heavy chain Low Risk (Kabat), Gamma 2 (antibody, V domains shown) VH: DVQLQESGPGLVKPSQTLSLTCTVTDYSITSDYAWNWIRQFPGKKLEWMGYISYSGSTSYNPSLKSRITISRDTSKNQFSLQLNSVTAADTATYYCASFDYAHAMDYWGQGTTVTVSS VL: EIVLTQSPGTLSVSPGERVTFSCRASQSIGTSIHWYQQKTGQAPRLLIKYASESISGIPDRFSGSGSGTDFTLTISRVESEDFADYYCQQINSWPTTFGQGTKLEIK | – | 157000 M⁻¹ s⁻¹ | 0.00149 s⁻¹ | – | – | – | –
4 | heRX1-2.G2: Human Engineered RX1: light chain Low Risk (Kabat), heavy chain Low + Mod Risk (Kabat), Gamma 2 (antibody, left off: a dimerising Fc or GST) heavy: QVQLQESGPGLVKPSQTLSLTCTVSDYSITSDYAWNWIRQFPGKGLEWMGYISYSGSTSYNPSLKSRITISRDTSKNQFSLQLNSVTAADTAVYYCASFDYAHAMDYWGQGTTVTVSS light: EIVLTQSPGTLSVSPGERVTFSCRASQSIGTSIHWYQQKTGQSPRLLIKYASERISGIPDRFSGSGSGTDFTLTISRVESEDFADYYCQQINSWPTTFGQGTKLEIKRT | – | 218000 M⁻¹ s⁻¹ | 0.00165 s⁻¹ | – | – | – | –
5 | heRX1-8.G2: Human Engineered RX1: light chain Low + Mod Risk (Kabat) − RAT 54, 55, 56 to SIS, heavy chain Low + Mod Risk (Kabat), Gamma 2 (antibody, V domains shown) VH: QVQLQESGPGLVKPSQTLSLTCTVSDYSITSDYAWNWIRQFPGKGLEWMGYISYSGSTSYNPSLKSRITISRDTSKNQFSLQLNSVTAADTAVYYCASFDYAHAMDYWGQGTTVTVSS VL: EIVLTQSPGTLSVSPGERVTFSCRASQSIGTSIHWYQQKTGQAPRLLIKYASESISGIPDRFSGSGSGTDFTLTISRVESEDFADYYCQQINSWPTTFGQGTKLEIK | – | 152000 M⁻¹ s⁻¹ | 0.00148 s⁻¹ | – | – | – | –
6 | heRX1-3.G2: Human Engineered RX1: light chain Low + Mod Risk (Kabat), heavy chain Low Risk (Kabat), Gamma 2 (antibody, left off: a dimerising Fc or GST) heavy: DVQLQESGPGLVKPSQTLSLTCTVTDYSITSDYAWNWIRQFPGKKLEWMGYISYSGSTSYNPSLKSRITISRDTSKNQFSLQLNSVTAADTATYYCASFDYAHAMDYWGQGTTVTVSS light: EIVLTQSPGTLSVSPGERVTFSCRASQSIGTSIHWYQQKTGQAPRLLIKYASERATGIPDRFSGSGSGTDFTLTISRVESEDFADYYCQQINSWPTTFGQGTKLEIKRT | – | 201000 M⁻¹ s⁻¹ | 0.00118 s⁻¹ | – | – | – | –
7 | heRX1-4.G2: Human Engineered RX1: light chain Low + Mod Risk (Kabat), heavy chain Low + Mod Risk (Kabat), Gamma 2 (antibody, left off: a dimerising Fc or GST) heavy: QVQLQESGPGLVKPSQTLSLTCTVSDYSITSDYAWNWIRQFPGKGLEWMGYISYSGSTSYNPSLKSRITISRDTSKNQFSLQLNSVTAADTAVYYCASFDYAHAMDYWGQGTTVTVSS light: EIVLTQSPGTLSVSPGERVTFSCRASQSIGTSIHWYQQKTGQAPRLLIKYASERATGIPDRFSGSGSGTDFTLTISRVESEDFADYYCQQINSWPTTFGQGTKLEIKRT | – | 238000 M⁻¹ s⁻¹ | 0.00108 s⁻¹ | – | – | – | –
8 | heRX1-5.G2: Human Engineered RX1: light chain Low Risk (Kabat) − R54 to S, heavy chain Low Risk (Kabat), Gamma 2 (antibody, left off: a dimerising Fc or GST) heavy: DVQLQESGPGLVKPSQTLSLTCTVTDYSITSDYAWNWIRQFPGKKLEWMGYISYSGSTSYNPSLKSRITISRDTSKNQFSLQLNSVTAADTATYYCASFDYAHAMDYWGQGTTVTVSS light: EIVLTQSPGTLSVSPGERVTFSCRASQSIGTSIHWYQQKTGQSPRLLIKYASESISGIPDRFSGSGSGTDFTLTISRVESEDFADYYCQQINSWPTTFGQGTKLEIKRT | – | 175000 M⁻¹ s⁻¹ | 0.00129 s⁻¹ | – | – | – | –
9 | heRX1-1.G2: Human Engineered RX1: light chain Low Risk (Kabat), heavy chain Low Risk (Kabat), Gamma 2 (antibody, left off: a dimerising Fc or GST) heavy: DVQLQESGPGLVKPSQTLSLTCTVTDYSITSDYAWNWIRQFPGKKLEWMGYISYSGSTSYNPSLKSRITISRDTSKNQFSLQLNSVTAADTATYYCASFDYAHAMDYWGQGTTVTVSS light: EIVLTQSPGTLSVSPGERVTFSCRASQSIGTSIHWYQQKTGQSPRLLIKYASERISGIPDRFSGSGSGTDFTLTISRVESEDFADYYCQQINSWPTTFGQGTKLEIKRT | – | – | – | greater than 2×10^6 Da | large lattice aggregates | (1.37 ± 0.24) × 10^−3 sec-1 | (1.37 ± 0.24) × 10^−3 sec-1
10 | heRX1-10.G2: Human Engineered RX1: light chain Low + Mod Risk (Germline), heavy chain Low + Mod Risk (Kabat), Gamma 2 (antibody, left off: a dimerising Fc or GST) heavy: QVQLQESGPGLVKPSQTLSLTCTVSDYSITSDYAWNWIRQFPGKGLEWMGYISYSGSTSYNPSLKSRITISRDTSKNQFSLQLNSVTAADTAVYYCASFDYAHAMDYWGQGTTVTVSS light: DIVLTQSPAFLSVTPGEKVTFTCQASQSIGTSIHWYQQKTDQAPKLLIKYASESISGIPSRFSGSGSGTDFTLTISSVEAEDAADYYCQQINSWPTTFGGGTKLEIKRT | – | – | – | about 400 kDa | 2:1 or 2:2 complexes | (1.1 ± 0.11) × 10^−3 sec-1 | (1.1 ± 0.11) × 10^−3 sec-1
